Measurements reported in the supplement of paper PMC10126150.
± gives the standard deviation of the averaged measurements.

Tested on: ATP
Test: switch fluorescence ratio, 500 uM ATP over buffer (Cy3 cluster intensity, sum of 5 cycles each) (fold (ratio)); higher = stronger signal-on switching upon ATP binding; sequences stand for … in TCGTCGGCAGCGTCAGATGTGTATAAGAGACAGTTTTTTTTTTTTTTTTTTTTTTTTT…TC
Settings: aptamer strand: ATP DNA aptamer (quencher-CACCTGGGGGAGTATTGCGGAGGAAGG + anchor), 100 nM annealed; ATP concentration: 500 uM
How it was run: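 Five buffer/ATP imaging cycles were run on Cy3-labelled switching-strand clusters on a modified Illumina MiSeq flow-cell, with NaOH stripping and re-annealing between cycles. In each cycle, clusters annealed to 100 nM quencher-labelled ATP aptamer were imaged in selection buffer, then after 15 min with 500 uM ATP at 22 °C. Per cluster, the fluorescence ratio is summed target-cycle over summed buffer-cycle Cy3 intensity, averaged per switch-domain sequence. Only clusters within 100-1000 RFU were kept.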
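Further: ATP exposure 15 min at 22 °C before imaging.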

Sequence | switch fluorescence ratio
ATTTTGGGTC | 0.991 ± 0.047
ATTTTGGGTG | 1.08 ± 0.049
ATTTTGTTCG | 1.04 ± 0.011
ATTTTGTTTC | 0.987 ± 0.032
ATTTTGTTTT | 1.01 ± 0.061
ATTTTTACAG | 1.03 ± 0.032
ATTTTTACGG | 1.01 ± 0.013
ATTTTTACTT | 0.974 ± 0.032
ATTTTTCAGC | 1.003 ± 0.0042
ATTTTTGACA | 1.001 ± 0.0037
ATTTTTGATG | 1.02 ± 0.073
ATTTTTGGCT | 0.995 ± 0.042
ATTTTTGTCA | 0.985 ± 0.015
ATTTTTTACA | 1.082 ± 0.0069
ATTTTTTGAC | 0.9915 ± 0.0011
ATTTTTTGGT | 0.9981 ± 0.006
ATTTTTTGTT | 0.976 ± 0.047
ATTTTTTTAG | 0.988 ± 0.02
CAAAAAAAGA | 0.986 ± 0.067
CAAAAAACCT | 1.55 ± 0.55
CAAAACGTAG | 1.01 ± 0.025
CAAAAGGGAA | 1.02 ± 0.024
CAAAAGGGCC | 1.021 ± 0.0042

Sequence | switch fluorescence ratio
CAAAATGCTT | 0.99 ± 0.047
CAAACCAGGA | 1.09 ± 0.07
CAAAGAAAAT | 0.9943 ± 0.0062
CAAAGAGGCG | 1.02 ± 0.057
CAAAGGGGTG | 1.03 ± 0.044
CAAAGGTACA | 1.008 ± 0.0063
CAAAGGTTGC | 1 ± 0.013
CAAAGTTGGA | 1.01 ± 0.017
CAAATAACAT | 1.01 ± 0.015
CAAATAAGTA | 1.01 ± 0.033
CAAATAGTGG | 0.943 ± 0.034
CAAATATACG | 1.23 ± 0.23
CAAATCTTGT | 1.03 ± 0.027
CAAATGGCTG | 1.04 ± 0.074
CAAATGGTTA | 0.974 ± 0.01
CAAATGTGCT | 0.986 ± 0.015
CAAATTCGAG | 0.984 ± 0.0033
CAAATTCGTC | 1.07 ± 0.015
CAAATTGGTG | 1.083 ± 0.0018
CAAATTTCAT | 0.985 ± 0.023
CAACAAGGCA | 1.02 ± 0.0071
CAACATCTAT | 1.02 ± 0.053
CAACGAAGTG | 1 ± 0.069

Sequence | switch fluorescence ratio
CAACGCGTTG | 1 ± 0.013
CAACGGACTA | 1.246 ± 0.0095
CAACGGTTGG | 1.01 ± 0.045
CAACGTGGGG | 0.99 ± 0.017
CAACGTTTTT | 1.01 ± 0.037
CAACTAAAAA | 1.01 ± 0.032
CAACTAAATT | 1.01 ± 0.025
CAACTCTCTG | 1 ± 0.038
CAACTGCGTG | 0.989 ± 0.013
CAACTTCCCC | 1.22 ± 0.1
CAAGAAAGTT | 0.964 ± 0.034
CAAGAACGGT | 0.969 ± 0.0077
CAAGACTTGC | 1.03 ± 0.045
CAAGAGCGGT | 1.02 ± 0.047
CAAGAGGGGC | 1 ± 0.026
CAAGATTTAT | 0.99 ± 0.023
CAAGGAAGAT | 1.02 ± 0.014
CAAGGACGAG | 1.02 ± 0.041
CAAGGATAGG | 0.9984 ± 0.0084
CAAGGCAAGG | 1.07 ± 0.018
CAAGGCATGG | 1.05 ± 0.033
CAAGGCATTG | 0.978 ± 0.02
CAAGGGATTG | 0.992 ± 0.0058

Sequence | switch fluorescence ratio
CAAGGGCCCA | 0.994 ± 0.014
CAAGGGGCAA | 0.964 ± 0.032
CAAGGGGTCC | 1.01 ± 0.032
CAAGGGTATT | 1.01 ± 0.017
CAAGGGTGGC | 1.003 ± 0.0061
CAAGGTAAGT | 1.03 ± 0.056
CAAGGTACGA | 1.02 ± 0.043
CAAGGTCAGC | 0.9798 ± 0.0071
CAAGGTTTTT | 1.01 ± 0.021
CAAGTCAAAG | 0.996 ± 0.039
CAAGTCTGG | 0.985 ± 0.032
CAAGTGTTCG | 0.996 ± 0.03
CAAGTTATAC | 1.38 ± 0.15
CAAGTTGAAA | 0.9693 ± 0.0034
CAAGTTTTGT | 1.01 ± 0.012
CAATAAAACA | 0.972 ± 0.013
CAATAATTTG | 0.99184 ± 0.00043
CAATAGGATG | 1.012 ± 0.0067
CAATAGGCGC | 1.01 ± 0.021
CAATAGGGGG | 1 ± 0.027
CAATATAGGT | 0.967 ± 0.018
CAATATATAC | 1.13 ± 0.043
CAATATGCAG | 0.962 ± 0.012

Sequence | switch fluorescence ratio
CAATATGTAT | 0.997 ± 0.063
CAATATGTGC | 1.009 ± 0.004
CAATCCTGGG | 0.989 ± 0.034
CAATCTACGC | 1.11 ± 0.038
CAATGAGTCT | 1.03 ± 0.035
CAATGCACGG | 1.07 ± 0.0098
CAATGCAGTG | 1 ± 0.019
CAATGCGTTT | 0.998 ± 0.038
CAATGGGCGT | 1.0067 ± 0.00057
CAATGGTTCT | 0.993 ± 0.036
CAATGTTATC | 1.01 ± 0.017
CAATTCAGTT | 0.991 ± 0.024
CAATTCTGTA | 0.997 ± 0.028
CAATTGCTGG | 0.949 ± 0.035
CAATTTAAGG | 0.997 ± 0.041
CAATTTAGTC | 0.983 ± 0.022
CAATTTCCCG | 1.01 ± 0.02
CAATTTGCTG | 0.94 ± 0.026
CAATTTTCTT | 1.02 ± 0.025
CAATTTTGGT | 1.01 ± 0.031
CAATTTTTAA | 0.9798 ± 0.0088
CAATTTTTCG | 1.02 ± 0.048
CAATTTTTTT | 1.08 ± 0.12

Sequence | switch fluorescence ratio
CACAAAAGCG | 1.01 ± 0.042
CACAAAAGTG | 1.02 ± 0.02
CACAAACAGA | 1.12 ± 0.036
CACAACTTAA | 0.9867 ± 0.0023
CACAATGCAG | 1 ± 0.033
CACACAAATT | 1.18 ± 0.15
CACACAGTCG | 1.09 ± 0.015
CACAGGGGAC | 1.11 ± 0.05
CACAGGGGGA | 2.67 ± 1.3
CACAGGTGCG | 2.23 ± 0.08
CACAGTGAAG | 0.985 ± 0.051
CACAGTGTCA | 1.01 ± 0.027
CACATGTAGC | 1.02 ± 0.041
CACCATAGTG | 1.03 ± 0.02
CACCATTAAT | 1.01 ± 0.017
CACCCGGCGC | 1.17 ± 0.13
CACCCGGGGT | 1.2099 ± 0.00019
CACCCTACTA | 1.29 ± 0.018
CACCGAGTTT | 0.987 ± 0.02
CACCGGAAAA | 1.09 ± 0.094
CACCGGAAGG | 1.02 ± 0.024
CACCGGGAAC | 1.56 ± 0.037
CACCGGTTGG | 1.014 ± 0.0044

Sequence | switch fluorescence ratio
CACCTTTATT | 1.018 ± 0.0096
CACGAGAAGG | 1.03 ± 0.018
CACGATTTGG | 0.995 ± 0.014
CACGCATCAG | 1.137 ± 0.011
CACGCGAGGA | 1.12 ± 0.12
CACGCGTGGT | 0.996 ± 0.019
CACGGAGGAG | 1.05 ± 0.055
CACGGATTGC | 1.18 ± 0.039
CACGGGGCGC | 0.977 ± 0.046
CACGGGGGTG | 0.987 ± 0.03
CACGGGGGTT | 1 ± 0.018
CACGGGGTAC | 1.34 ± 0.016
CACGGGGTCG | 1.036 ± 0.0027
CACGTACTCC | 1.5 ± 0.097
CACGTATCGG | 1.07 ± 0.029
CACGTGATTG | 1.02 ± 0.02
CACGTGTGTG | 0.961 ± 0.029
CACGTGTTGC | 1.04 ± 0.03
CACGTTTGGG | 1.01 ± 0.027
